Laboratory results taken from article PMC10653801.

B1: CO (random + O1) (dsDNA)
DNA 1: ACTGTGAGCCTAATATTTACTGCTATAACAGTAAAGGCTATCTGATTTTA
DNA 2: TAAAATCAGATAGCCTTTACTGTTATAGCAGTAAATATTAGGCTCACAGT
B2: OS (O1 scrambled) (dsDNA)
DNA 1: TATCATTTAACAAACTCGATTTGTTATATATAATTAATTTTTGGTGTTCC
DNA 2: GGAACACCAAAAATTAATTATATATAACAAATCGAGTTTGTTAAATGATA
B3: OI (O1 downstream repeat inverted) (dsDNA)
DNA 1: TATCATTTTTACTGCTATAAAATGACTATATAATTAATTTTTGGTGTTCC
DNA 2: GGAACACCAAAAATTAATTATATAGTCATTTTATAGCAGTAAAAATGATA

Target: HipB(Lp) (Legionella pneumophila Lp01JK, UniProt Q5ZSZ8 1-75)
Assay: EMSA; HipB 2.5 nM, DNA 10 nM
Conditions: protein: recombinant; tags: His6-SBP tag cleaved; chain copies: 2; blunt

Row | Binder | binding result
1 | B1 | binds
2 | B2 | no binding
3 | B3 | binds
